By pKa is commonly meant the pH at which an ionisable group is half protonated.

These results are taken from paper PMC8161422.

The target in series [1] is alpha-synuclein 5Q mutant E114Q;E123Q;E126Q;E137Q;E139Q (UniProt P37840). Briefly: pH electrode (Orion Star A211 meter, Orion ROSS combination micro electrode) before and after fibril formation; closed-system proton balance. The following applies: fibril formation at 37 °C, temperature of the pH reading not stated, no added salt (pure water; protein and its counter-ions only), none (Milli-Q water; the protein is the only buffer).

A further series addresses His50 (UniProt position 50, KEGVVHGVATV). Briefly: NMR. The following applies: No added salt is implied by the Table 1 footnote 'in absence of salt'. Ionic strength is otherwise not stated.; 20 mM sodium phosphate buffer, pH 7 (as described in this article); protein 250 µM; free monomer, intrinsically disordered, no fibrils; cited from earlier work.
The target in series [2] is alpha-synuclein, wild type (UniProt P37840). Briefly: NMR pH titration (quoted from Croke et al. 2011, ref 30). The following applies: 20 mM sodium phosphate buffer, pH 7 (so in the source); cited from earlier work.
Series [3] shares this target. Put plainly: NMR pH titration (quoted from Croke et al. 2011, ref 30); Asp and Glu values averaged by the present authors. To be noted: in absence of salt (Table 1 footnote d), not stated for the Asp/Glu values ('in buffer'); cited from earlier work.
Series [4] shares this target. Briefly: pH electrode (Orion Star A211 meter, Orion ROSS combination micro electrode) before and after fibril formation; closed-system proton balance. The following applies: fibril formation at 37 °C, temperature of the pH reading not stated, no added salt (pure water; protein and its counter-ions only), none (Milli-Q water; the protein is the only buffer).

Turning to “alpha-synuclein 5Q mutant E114Q;E123Q;E126Q;E137Q;E139Q”, the “change of sample pH on fibril formation” value in series [1] (pH 6.4-6.6) is given as “pH increases by only 0.2 units, from pH 6.4 (monomer) to pH 6.6 (fibrils), 20 uM in water”. For the same substance, in series [1] (pH 6.6), the apparent pKa(ave) of acidic groups in fibrils, average over the remaining acidic groups (five fewer than wild type) of the 5Q mutant stood at 4.7 pH units.

In the case of alpha-synuclein (Homo sapiens), the pKa with His50 is recorded as 6.78.

As for alpha-synuclein, wild type, the pKa, His50 of alpha-synuclein (monomer) in series [2] is 6.78 pH units. Moreover, in series [3], the pKa in C-terminal tail of α-synuclein (Asp), average of Asp residues in the C-terminal tail of monomeric alpha-synuclein is 4.2 pH units; the pKa in C-terminal tail of α-synuclein (Glu), average of Glu residues in the C-terminal tail of monomeric alpha-synuclein is 4.6 pH units; the pKa in N-terminal and NAC region of α-synuclein (Asp), average of Asp residues in the N-terminal and NAC regions (first 100 residues) of monomeric alpha-synuclein was 3.6 pH units; the pKa in N-terminal and NAC region of α-synuclein (Glu), average of Glu residues in the N-terminal and NAC regions (first 100 residues) of monomeric alpha-synuclein is 4.2 pH units. Further, in series [3], the pKa in full length α-synuclein monomer (Asp), average of all Asp residues of monomeric alpha-synuclein was 4 pH units and the pKa in full length α-synuclein monomer (Glu), average of all Glu residues of monomeric alpha-synuclein is 4.4 pH units. In addition, in series [4] (pH 5.6-6.5), the “change of sample pH on fibril formation” value is on record as “pH increases by 0.9 units, from pH 5.6 (monomer) to pH 6.5 (fibrils), 20 uM in water” and the “protons taken up per monomer during fibril formation” value was “about 2 protons per monomer”. For the same substance, in series [4] (pH 6.5), the apparent pKa(ave) of acidic groups in fibrils, average over all acidic groups (Asp, Glu and the C-terminus) of alpha-synuclein worked out at 5.4 pH units.
